Experimental data reported in publication PMC6706469.

Experiments:
[1] = molecular target: TbL5 (Trypanosoma brucei ribosomal protein L5), endogenous (Trypanosoma brucei (endogenous in T. brucei cells)); experiment: co-IP; whole-cell extract of 3×Ty-TbL11 T. brucei cells, with RNase A added to digest cellular RNA; beads with antibody to the target (anti-P34/P37, anti-TbL5 or anti-TbRpf2); anti-Ty Western blot of pellet and supernatant; amount in the pellet relative to pellet plus supernatant
[2] = molecular target: TbRpf2 (Trypanosoma brucei homologue of Rpf2), endogenous (Trypanosoma brucei (endogenous in T. brucei cells)); experiment: as above
[3] = molecular target: P37 (trypanosome-specific protein), endogenous (Trypanosoma brucei (endogenous in T. brucei cells)); experiment: as above
[4] = molecular target: P34 (trypanosome-specific protein), endogenous (Trypanosoma brucei (endogenous in T. brucei cells)); experiment: as above
[5] = molecular target: TbL5 (Trypanosoma brucei ribosomal protein L5), endogenous (Trypanosoma brucei (endogenous in T. brucei cells)); experiment: co-IP; whole-cell extract of 3×Ty-TbL11 T. brucei cells, without RNase A; beads with antibody to the target (anti-P34/P37, anti-TbL5 or anti-TbRpf2); anti-Ty Western blot of pellet and supernatant; amount in the pellet relative to pellet plus supernatant
[6] = molecular target: TbRpf2 (Trypanosoma brucei homologue of Rpf2), endogenous (Trypanosoma brucei (endogenous in T. brucei cells)); experiment: as above
[7] = molecular target: P37 (trypanosome-specific protein), endogenous (Trypanosoma brucei (endogenous in T. brucei cells)); experiment: as above
[8] = molecular target: P34 (trypanosome-specific protein), endogenous (Trypanosoma brucei (endogenous in T. brucei cells)); experiment: as above
[9] = molecular target: Recombinant P34 (Trypanosoma brucei); experiment: co-IP; in vitro, recombinant TbL11 incubated with the recombinant target, with in vitro-transcribed 5S rRNA added; precipitated with antibody to the target; anti-His Western blot; amount in the pellet relative to pellet plus supernatant
[10] = molecular target: Recombinant TbRpf2 (Trypanosoma brucei); experiment: as above
[11] = molecular target: Recombinant TbL5 (Trypanosoma brucei); experiment: as above
[12] = molecular target: Recombinant P34 (Trypanosoma brucei); experiment: co-IP; in vitro, recombinant TbL11 incubated with the recombinant target, without 5S rRNA; precipitated with antibody to the target; anti-His Western blot; amount in the pellet relative to pellet plus supernatant
[13] = molecular target: Recombinant TbRpf2 (Trypanosoma brucei); experiment: as above
[14] = molecular target: Recombinant TbL5 (Trypanosoma brucei); experiment: as above

## 3×Ty-TbL11 (Ty-tagged Trypanosoma brucei ribosomal protein L11) (natural protein)
[1]
  fraction in the pellet (pellet relative to pellet plus supernatant): 0.67
[2]
  fraction in the pellet (pellet relative to pellet plus supernatant): 0.58
[3]
  fraction in the pellet (pellet relative to pellet plus supernatant): 0.53
[4]
  fraction in the pellet (pellet relative to pellet plus supernatant): 0.53
[5]
  fraction in the pellet (pellet relative to pellet plus supernatant): 0.53
[6]
  fraction in the pellet (pellet relative to pellet plus supernatant): 0.07
[7]
  fraction in the pellet (pellet relative to pellet plus supernatant): 0.16
[8]
  fraction in the pellet (pellet relative to pellet plus supernatant): 0.16

## Recombinant TbL11 (Trypanosoma brucei ribosomal protein L11) (natural protein)
[9]
  fraction in the pellet (pellet relative to pellet plus supernatant): 0.85
[10]
  fraction in the pellet (pellet relative to pellet plus supernatant): 0.83
[11]
  fraction in the pellet (pellet relative to pellet plus supernatant): 0.9
[12]
  fraction in the pellet (pellet relative to pellet plus supernatant): 0.96
[13]
  fraction in the pellet (pellet relative to pellet plus supernatant): 0.86
[14]
  fraction in the pellet (pellet relative to pellet plus supernatant): 0.92
